The record followed here is article doi:10.1101/2025.05.23.655736 (bioRxiv, 2025).

The target of the assay is T1, CHAP domain of Streptococcus pneumoniae PcsB (residues A274-D392) (Streptococcus pneumoniae, UniProt Q8DMY4 274-392).
T1 sequence (looked up): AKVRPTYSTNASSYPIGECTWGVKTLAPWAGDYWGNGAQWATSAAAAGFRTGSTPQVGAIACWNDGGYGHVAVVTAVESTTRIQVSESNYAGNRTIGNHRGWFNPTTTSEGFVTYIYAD
As to the kind of experiment: SPR. (In SPR one partner is held on a chip, and binding of the other changes the refractive index at the surface.)

B1: synthetic pneumococcal stem pentapeptide L-Ala-D-isoGln-L-Lys-D-Ala-D-Ala (peptide)
peptide: AQKAA
modifications: D-isoglutamine at position 2 (iQ); D-alanine at positions 4 and 5
Take B1: the “fold change of KD against AEKADAD” value was around 15 fold.
